For this assay, the target named is T1, CD70 on human CD70+ renal cell carcinoma cell lines (A498, CD70 high; ACHN, CD70 low) (human, UniProt P32970 1-193).
T1 sequence (looked up): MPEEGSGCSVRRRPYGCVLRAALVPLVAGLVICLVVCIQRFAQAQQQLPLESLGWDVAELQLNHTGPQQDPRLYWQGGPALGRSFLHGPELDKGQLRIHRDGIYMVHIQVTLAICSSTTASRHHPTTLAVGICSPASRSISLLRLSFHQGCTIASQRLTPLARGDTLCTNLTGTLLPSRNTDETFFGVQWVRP
Briefly: cell-based or functional assay.

Data on one molecule can be found in patent publication US20220387572A1 (CRISPR THERAPEUTICS, published 2022).

B1: anti-CD70 CAR (CD70B scFv with 41BB), expressed on CTX130 cells (TRAC-/β2M-/CD70-/anti-CD70 CAR+ T cells) (other)
chain: QVQLVQSGAEVKKPGASVKVSCKASGYTFTNYGMNWVRQAPGQGLKWMGWINTYTGEPTYADAFKGRVTMTRDTSISTAYMELSRLRSDDTAVYYCARDYGDYGMDYWGQGTTVTVSSGGGGSGGGGSGGGGSGDIVMTQSPDSLAVSLGERATINCRASKSVSTSGYSFMHWYQQKPGQPPKLLIYLASNLESGVPDRFSGSGSGTDFTLTISSLQAEDVAVYYCQHSREVPWTFGQGTKVEIKSAAAFVPVFLPAKPTTTPAPRPPTPAPTIASQPLSLRPEACRPAAGGAVHTRGLDFACDIYIWAPLAGTCGVLLLSLVITLYCNHRNRKRGRKKLLYIFKQPFMRPVQTTQEEDGCSCRFPEEEEGGCELRVKFSRSADAPAYQQGQNQLYNELNLGRREEYDVLDKRRGRDPEMGGKPRRKNPQEGLYNELQKDKMAEAYSEIGMKGERRRGKGHDGLYQGLSTATKDTYDALHMQALPPR
B1: the “cell killing (CellTiter-Glo), TRAC-/β2M-/CD70-/anti-CD70 CAR+ T cells on CD70+ A498 cells, 24 h, T cell:A498 ratios 1:1 and 0.5:1” value was above 90%; the “cell killing (CellTiter-Glo), TRAC-/β2M-/anti-CD70 CAR+ T cells (2xKO) on CD70+ A498 cells, 24 h, T cell:A498 ratios 1:1 and 0.5:1” value was below 90%.
